Results reported in the DeepSol protein solubility set.

Experiment: soluble on expression in E. coli; label from the status in PepcDB or PDB records

| Sequence | soluble on expression in E. coli |
| --- | --- |
| MGYAVLHLEKAKGTDSRMSAHIERTVHPKNADRTRTHLNRELVQFPEGVRNRTQAIAQRIETAGIRRKVSANQVKAIRILLTGSNKDMKQMEAEGRIEDWCNDSLKWIRETYGEQNLVSAVLHMDEKTPHIHATVIPIMTGERRKAGQEEQNGKKKYRKKNPQDVRLCADDVMARHRLKHYQDTYAQAMNKYGLQRGVDGSLAKHISTMQYYKQLVEQQDSLQENIENLLGLEEEAMKKLKQVKGEINVQKMKGAAVNATTAIADGVSSLFGGSKVKRLEAENENLKRNIVNLQKQVQAEQREQTKMENRHSSEINRVDRSYRQKIAEYDNRLELIDTYFPIVKELIPIAEQCREVGFTEELTRRIVSLQPVEFKGRLYSKEYKEKFRTEHSTATVERTPQEKGKFRLCIDGIPILDWFRKKFQEIKEKLGLNTPVENKQRKGLKILEHHHHHH | not soluble |
| MGHHHHHHSHMRSTGSAPSCSGESARAHRRRAGAMSIRSSRTKHSTAQKGAHRRRVSLAGFFNLIYKRQDLGLDFLREMSEPLCTSRPVLLPLNLKNIAPGRCISLTPFGHTDNLGFQCETCTDPNLNKSIPPKLEDPAFSKNELCSVTLTFYQQAEQVIQHKQFYLSLLNLSMDAVRNSLTQPGLLYCYLVTKAFMLEGFPIFFEETNGMLGLYLVFRRDLLHLHESYLRLLIDNLGNYDISVDSVGRSYIIKLCPVGNVSRIPTIPADNVCLAVNNLDYGDDVKASWIECFNIVSRLSQQ | not soluble |
| MGSDKIHHHHHHMSLTITKLQKKIADQAVLNNITFSLSLGQVVGLVGPNGIGKTTIFRTVTHQYRADGGTIELDEQDLTDHPEQRENLFYLDNQHLFFRKYRLDKIAGDYQLLYATFDQARFMALIEKFGLQGSQRFQSLSKGYQALVMVALALASGAPYVFLDEPFDGLDLLIRERIVNLVVDAVADGKRTFLIASHNLVELDGLSDRVLFVKAGRISQDLTLEDVRQQAIKLQLVFKTKAIPDVIR | not soluble |
| MKKVILFMAGILASMMLNAQSRWSVTPEAGLVVNKENEGTSVTLGFKAGAGVLYQLKEGVGKKPSFGLKSGVYILMQKGGYHPMSWGNISTGGGFSMDYEKTNVESTRYYLQLPVMAHWGFKLCDDVRLKLAVGPYVAVGIGGRTNAYVSSSKYNIDEETGVGQYEYRNDYYRFGTFKGKTVNEEFGFEASPRLDWGGTASVGIAVKRISFTVGYDLAWGKYNKEQNDLRIRNHMVSFTSGYSF | not soluble |
| MQVMFYSPSGQKLFGENGSPAFLLKGGITDLKGAIEARTTVIPEVPGQVFDGVTIKPFTFGVTMVVYPTKEMPMEKAMRKTRQIFSAFDYSTCRIDGTGIPVGLKVRLDSIISAPSQDTAKEIAEEITITLAADEGIFWADRKEASGKIDIVNYGDCDLWPEYRWQKTTTITLPSGAKINLPETPTPRVLRTTRHQVSITDLDGKPDRELLKKLGTVWPEGVPRKETKTYEITQNGYIMWRIGYLDPWGL | not soluble |
| MDYLNYEEIQSLKNSLLHNIKHTYISRYMILTALYTGMRPGEIAVLTWSDIDFKNQTININKSYNHDKGRVDNYDSSEIDKSTKNTNSVRIIKVDKKFLDILSQLKQNDHEKIFIGKDGTIPTSNAVNKVWRKQLEKLNIDKPSFHFHSVRHTHVALLPFKGVPLYAISKRLGHANMSTTAKKYAYMLDELKQQVRLEHHHHHH | soluble |
| GSVVIVGRIILSGSGSITAYSQQTRGLLGCIITSLTGRDKNQVEGEVQVVSTATQSFLATCVNGVCWTVYHGAGSKTLAGPKGPITQMYTNVDQDLVGWQAPPGARSLTPCTCGSSDLYLVTRHADVIPVRRRGDSRGSLLSPRPVSYLKGSSGGPLLCPSGHAVGIFRAAVCTRGVAKAVDFVPVESMETTMRSPVFTDNSSPPAVPQSFQVAHLHAPTGSGKSTKVPAAYAAQGYKVLVLNPSVAATLGFGAYMSKAHGIDPNIRTGVRTITTGAPVTYSTYGKFLADGGCSGGAYDIIICDECHSTDSTTILGIGTVLDQAETAGARLVVLATATPPGSVTVPHPNIEEVALSNTGEIPFYGKAIPIEAIRGGRHLIFCHSKKKCDELAAKLSGLGINAVAYYRGLDVSVIPTIGDVVVVATDALMTGYTGDFDSVIDCNTCVTQTVDFSLDPTFTIETTTVPQDAVSRSQRRGRTGRGRRGIYRFVTPGERPSGMFDSSVLCECYDAGCAWYELTPAETSVRLRAYLNTPGLPVCQDHLEFWESVFTGLTHIDAHFLSQTKQAGDNFPYLVAYQATVCARAQAPPPSWDQMWKCLIRLKPTLHGPTPLLYRLGAVQNEVTLTHPITKYIMACMSADLEVVT | soluble |
| MDQKQLQALVEQISIRVFGKPFRHTAFFNPRLRTTGGRYMLQTHNIELNKKHYEQFGEEELIAIIKHELCHYHLHLEGKGYRHRDRDFRELLQKVGAPRYCRPLARNTKAPKTIYTYICTSCGLTYRRKRRINIDRYVCGRCRSKLKRS | not soluble |
| MKIVRASRDQSAPVYGPRAGSQCMSNCFTFLHTCYLMGIDPVLDTTSLDAVLDSGARLDAIADEKVKRQALTDHPYRLGTEIPTVIETPAGITGHALSRPFNGTAETQDLGGYKCLGILDFLTYARGKPLPVYIIVTVGVHTRGVIVARGATYVFDPHTTDLSAEAAVYVCDDFTEAISALSFFTEMIGDFYYDAVLVYFTRCRTTLISPSELLVQIMDQYKDPDIDASVMS | soluble |
| MAGPVFPWRDGNQFELLIDGPAFFPRMLLAIMRAEFQVDLELYLVEAGACAEAVVDALEQAARRGVRVRCLFDDYGSLAFNSALRQRLLDAGVYLRWYNRLRWKRGLRNLYRDHRKLLLVDERWAVVGGTGVTDEFWTPGEATSEWHEVMVQMQGPVVSDWQLLFDRQWQANNRRTAWRPAEGFGLPRLPKVPAQGQGMGRVAYADARQHQDILHALVRALNSGQKRVWLATPYFLPTWSVRRSLRRAASKGLDVRLLLTGPRTDHPSVRYAGHRYYPRLLRAGVRIFEYQPCFLHLKMAVVDDWVSVGSCNFDHWNLRFNLEANIEALDPPLTAAVVASFERDFAQSEEVDLAHWHARPWWRRVKQRIWGWLDRLVVNFLDRRD | not soluble |
| MGSDKIHHHHHHMTMQQVLDGTATFMEHLGLNEEPLGVYYSDDKPENAFGPKTGVPISRELEESGKLDMREVMKSFTCVMGSIWLARKKHGAAFISQTEYGCPGGVYYCAMLQPHLRFIEHYVSTGFEGTPLQGERYMPDPDAMRNFILRVAPRKAPARYCIFKPLSLFSAQEKPEFIIFFARPEVLTGLFTQTVFTTGDMDCVASPFGAGCTNILGWPLYYKEKGIEKAVIGGFDPSARKFMKTDELTFTVPLSLYEKMLAALPESMFTHETDWKNVRKKVARSAKAWRVRRPGAKQPPPSTCPITY | not soluble |
| MPPAKTKPKFPLCRLPSESVTNVLKIMKLSEIFNLSETSLKARSIVELAMQTIPSHLDLQGFPSKNYKLTVENDGQKVQVQFPHATDALTNFKQKLFRICKTFQIKTASVYFSCPVEAHIIELLGFIKKRKVQFQDFSIKGSVTEQNFKFFMTIGAQRFHLDMSETQPVTEVFALLKIQEVVLQNAAISSQMLNKVLKAWKTTSRLKKFRVIKNWKMDTSVVFQGLHVKQKSRSDTKKEYEIDLDGGGKATCCFKFEKGSSTNGFEFIVIN | not soluble |
| VGKLQKREYSHEVNDEDLRKKVHDECYARAYEVATSGTGKHERGEAFEKIVEEFKAQYTEEELAEKAEMIARYYHDVEKEAMRRAILDEGKRLDGRKTTEIRP | not soluble |
| MGSDKIHHHHHHMTPNPRHWARELWQRSRDRGLQTHIDVLVDATGLDDYPLLAEHARQSDPPALFKLLEQTPEAALADEGPLLLRLEDGHAAWLDELLERIDCRRHLMLLFSPWPLPRLGEHLRSCTQAEWNQGRSSGVLRFYEPGLFMAVSDMLDPRQSCYLHAPVSSWHWLDRDGRPRALAGHYQAHETPPLQAALRLEAHQVAALRAWSEAEAYRREYFVLPREHGLGSQESLLQHLVQAHLAADRQGLQDFDQRDAFVAQWLREQTPGPGFSPAGTSRA | not soluble |
| VTVQDGNFSFSLESVKKLKDLQEPQEPRVGKLRNFAPIPGEPVVPILCSNPNFPEELKPLCKEPNAQEILQRLEEIAEDPGTCEICAYAACTGC | soluble |
| MARFSIEGKSLKLDAITTEDEKSVFAVLLEDDSVKEIVLSGNTIGTEAARWLSENIASKKDLEIAEFSDIFTGRVKDEIPEALRLLLQALLKCPKLHTVRLSDNAFGPTAQEPLIDFLSKHTPLEHLYLHNNGLGPQAGAKIARALQELAVNKKAKNAPPLRSIICGRNRLENGSMKEWAKTFQSHRLLHTVKMVQNGIRPEGIEHLLLEGLAYCQELKVLDLQDNTFTHLGSSALAIALKSWPNLRELGLNDCLLSARGAAAVVDAFSKLENIGLQTLRLQYNEIELDAVRTLKTVIDEKMPDLLFLELNGNRFSEEDDVVDEIREVFSTRGRGELDELDDMEELTDEEEEDEEEEAESQSPEPETSEEEKEDKELADELSKAHI | soluble |
| MSLKIVSFQDTKQNTGMESAEISEELNKLSKEKSDLQKKVNELQSQVKGYQNAAASSGSMNKQIVNELNTSNMLIGSVDVTGPGIILVITPQNISSSTNNSTGQNNDVITGEDLLYLINELNFSQAEAISINDVRITSMTGIRSSSGGSDIFVGDDRISPYEKITIKAIGDSKLLYSALSYPGVLSSVPSGYKADYDKYGSIKIGKTNKVIKFDYAKPISKEGHHHHHH | soluble |
| MDGIAEPVIIKDDASRFVFINDAACDLLGKDRNQLIGRTDHDILPGEQADRIVSLDRIVLSTSEGHELEEQITTPDGTQRTLLTKKRCVSIPAGSTQEKFVVVTIVDIT | not soluble |
| MDEVNVIARITGVSRVRTFERDGREGRFISLDIMDATGSTTYTLWNNDVNLVEELGLKEGDAVKILWAQPRRRDDKVTLTHTSLTRVVPGLEHHHHHH | not soluble |
| MGSDKIHHHHHHMVNDMQERQNRYWQLLHQPDRLLLLHQASSVEQFVTLMGDWLAWPELTLDQMLDFVHMQRWEDFTPKLALFSQAWLPYRYCSQSKEVYWIPAFNQLSKPFLEDDISDIRLGLLAIFIQPKTLLKSLLTQCDSVPEIHPCLMIFHWSRCGSTLVSSSFSKLNDCLVISESMLCSDIMRDDFWSQEVKVKLVDLCLRLQGRFRHGERHLVVKWNAWDLAYWPMLLALYPQSRVLCLIRNPKDILASHQRLAGRHMVEGQGLLSTEWHIQQIETVSTTFSLNKFRISVLQHLAQLTHALLNSNRAILLDYQQVKDFHPTTLSTILGRPLSMDEIECWQDHWCFDAKQQGQVFTPAVSNQPVPLRELQSPSWQQLFMTYNQLLQRLYWDKKHDV | not soluble |
| MGSDKIHHHHHHCNFDGRPCCWANVPPPDDQLDWQIASGVPVQLQNRGVPQPEGSYLIAYAKSAAPSDEAQFASCSIGCASSDIVVRAKHWQSESVLLQVCLRESFPSNAERNPLINCQEFPYVDGMGTTEVILPKTSLVDIVFVASNFIGDQGDVAILDDIEVSYDRNGSECQN | not soluble |
| GLGNVDETLEIKQLLNIYRDLQLGHFCAFYQPQKHIDSGGVVAFEALARRVIGKGLYEMPDRFFPILEKYHLIPTLTEVMVRDILTFLMTEDAVLQDITIGVNIPGKMLTDGSFYRLLLSVAEEKQAQHALHRLSVEITEHDLIADFDAAKHEIYKLKSLGIRCALDDFGTGYSGYEYLCEIPFDVVKIDGRYIQSLGKAESSTVILQSMISSIKSLSMQVIAEWVDSDQQYQILQEMGCDLVQGYLVSPA | not soluble |
| MDHSLNSLNNFDFLARSFARMHAEGRPVDILAVTGNMDEEHRTWFCARYAWYCQQMMQARELELEH | soluble |
| MISTPLSKEFEWPAKPVSLELQHQVEQFYYREAQLLDHHAFQAWFALLAEDIHYWMPIRTVRTAREQGLEYVPAGANAHFDDTHATMYGRIRQKTSDLNWAEDPPSRTRHLVSNVIVREMDTPGTLEVASAFLLYRSRLERQVDVFAGERRDVLRIADNPLGFQIAKRTIILDQSTVLANNLSVFF | soluble |
